Experimental findings from patent US20220363763A1 (ABL BIO, published 2022) are described below.

The target in assay [1] is T1, human LAG3 on cells (human, UniProt P18627 23-525).
T1 construct: whole, on cells; also called Jurkat-LAG3
T1 sequence (looked up): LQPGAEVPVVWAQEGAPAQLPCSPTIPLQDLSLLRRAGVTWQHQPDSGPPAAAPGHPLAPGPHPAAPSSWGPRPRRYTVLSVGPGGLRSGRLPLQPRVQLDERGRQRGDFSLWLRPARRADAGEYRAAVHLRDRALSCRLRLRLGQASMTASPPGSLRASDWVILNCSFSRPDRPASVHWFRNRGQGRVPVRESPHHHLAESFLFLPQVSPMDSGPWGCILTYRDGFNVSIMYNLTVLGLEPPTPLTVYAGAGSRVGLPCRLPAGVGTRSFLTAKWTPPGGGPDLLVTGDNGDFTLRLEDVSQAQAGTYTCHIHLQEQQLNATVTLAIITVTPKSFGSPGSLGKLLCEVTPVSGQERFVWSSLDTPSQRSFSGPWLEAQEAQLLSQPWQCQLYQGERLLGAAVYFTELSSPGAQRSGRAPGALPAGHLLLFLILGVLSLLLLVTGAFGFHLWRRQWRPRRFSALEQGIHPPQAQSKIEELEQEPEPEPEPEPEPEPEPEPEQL
The assay is described as follows: flow cytometry on hLAG3-expressing Jurkat cells. As for the experimental part:
(§1) To further confirm affinity matured anti-LAG-3 antibodies could bind to cell-derived human LAG3, both inducible hLAG3 expressed Jurkat cells and activated PBMCs were used to test the binding capability of B3807b and B3810. In brief, Jurkat cells were resuspended in FACS buffer. Anti-LAG3 antibodies and isotype control were 4-fold serially diluted in FACS buffer with a dose ranging from 20 nM to 30 pM. The serially diluted antibodies were added to the cell suspension and incubated for 30 minutes on ice. Then after removal of unbound antibodies, cells were stained with anti-human IgG conjugated with Alexa Fluor 633 (Thermo, A21091). Fluorescence measurement was acquired on FACSCelesta flow cytometer and analyzed in Flowjo to determine the mean fluorescence intensities (MFI). To test anti-LAG3 antibodies' ability of binding to native human LAG3, PBMCs from health donor were stimulated with anti-CD3 (BD, 555336) and anti-CD28 (BD, 555725) both at a concentration of 1 ug/ml. Following 3 days' stimulation, cells were harvested and incubated with anti-LAG3 antibodies for 30 mins on ice. The cells were stained with anti-human CD4 and anti-human IgG. Analysis of antibodies binding to CD4+ cells were carried out on FACSCelesta flow cytometry. […] FIG. 31 is a graph showing the binding curve of anti-LAG3 antibodies.

Assay [2] has as its target T2, recombinant human LAG-3-ECD-human IgG1 fusion protein (human, UniProt P18627 23-450, biotin-labeled in the MHC class II blocking assays).
T2 construct: extracellular domain; also called LAG-3-huFc; LAG-3-ECD-huFc; not shown: human IgG1 Fc
T2 sequence (looked up): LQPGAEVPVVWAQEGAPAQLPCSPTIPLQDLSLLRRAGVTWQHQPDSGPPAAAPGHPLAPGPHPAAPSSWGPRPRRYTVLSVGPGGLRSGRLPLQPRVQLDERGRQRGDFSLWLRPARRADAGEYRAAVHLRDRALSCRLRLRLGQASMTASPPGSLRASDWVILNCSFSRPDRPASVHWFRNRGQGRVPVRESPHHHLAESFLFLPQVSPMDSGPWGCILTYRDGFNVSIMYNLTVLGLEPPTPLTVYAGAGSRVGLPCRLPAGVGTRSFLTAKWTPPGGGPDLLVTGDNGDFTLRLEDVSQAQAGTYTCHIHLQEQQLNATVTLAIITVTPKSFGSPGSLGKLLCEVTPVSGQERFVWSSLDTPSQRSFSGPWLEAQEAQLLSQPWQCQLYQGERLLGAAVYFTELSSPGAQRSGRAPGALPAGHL
The assay is described as follows: ELISA as Example 2.2, coated human LAG3 ECD-Fc. On the procedure: To evaluate the capability of the anti-LAG-3 antibodies to bind to human, rat, and mouse LAG3 the antibodies identified in Example 2.1 were evaluated for their binding property through ELISA. The human, rat and mouse LAG3 ECD-Fc protein were coated to ELISA plate at 1 μg/ml with 100 μl/well. Antibodies from Example 1 were serially diluted with ELISA diluent buffer. […] The resulting plates were washed and then labeled with anti-human IgG(Fab)-HRP antibody. The S31 can only bind to human LAG3. The S27 and T99 can bind to human LAG3 and rat/mouse LAG3 with lower potency. The S119 antibody can bind to human, rat and mouse LAG3 at high potency (FIGS. 22A-22D).

Assay [3] concerns the target T1, human LAG3 on cells. The assay is described as follows: flow cytometry (MFI) on activated CD4 T cells, lower panel; EC50 table has no unit, x axis Concentration (nM); Table 31 of the text prints the rounded 0.77. As for the experimental part:
as §1
A general note: A flow cytometer gives signals particle by particle.

The target in assay [4] is T3, human LAG3 (construct not stated) (human, UniProt P18627 23-450, limits assumed).
T3 construct: also called human LAG3 protein; antigen
T3 sequence (looked up): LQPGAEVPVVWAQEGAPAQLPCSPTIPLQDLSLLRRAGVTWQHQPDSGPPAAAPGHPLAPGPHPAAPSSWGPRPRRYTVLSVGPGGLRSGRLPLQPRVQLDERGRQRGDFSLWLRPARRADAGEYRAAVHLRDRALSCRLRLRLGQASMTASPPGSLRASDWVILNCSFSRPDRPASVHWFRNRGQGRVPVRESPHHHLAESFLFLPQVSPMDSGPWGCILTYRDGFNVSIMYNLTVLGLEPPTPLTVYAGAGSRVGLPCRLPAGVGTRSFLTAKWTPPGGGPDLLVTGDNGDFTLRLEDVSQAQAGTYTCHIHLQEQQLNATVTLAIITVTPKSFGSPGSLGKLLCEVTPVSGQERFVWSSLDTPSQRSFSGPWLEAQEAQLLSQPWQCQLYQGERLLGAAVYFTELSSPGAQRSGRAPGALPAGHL
The assay is described as follows: BLI Octet Red 96, affinity ranking. Background: Biolayer interferometry detects binding as a change in optical thickness at a sensor tip.

Assay [5] has as its target T1, human LAG3 on cells. The assay is described as follows: flow cytometry on activated CD4 T cells. On the procedure: as §1
The target in assay [6] is T3, human LAG3 (construct not stated). The assay is described as follows: BLI Octet Red 96, full kinetics, antigen 50-3.125 nM. On the procedure:
The binding affinity was calculated by software in Octet® RED96 System.

For assay [7], the target named is T4, recombinant his-tag human LAG3-ECD protein (human, UniProt P18627 23-450).
T4 construct: extracellular domain; not shown: his tag
T4 sequence (looked up): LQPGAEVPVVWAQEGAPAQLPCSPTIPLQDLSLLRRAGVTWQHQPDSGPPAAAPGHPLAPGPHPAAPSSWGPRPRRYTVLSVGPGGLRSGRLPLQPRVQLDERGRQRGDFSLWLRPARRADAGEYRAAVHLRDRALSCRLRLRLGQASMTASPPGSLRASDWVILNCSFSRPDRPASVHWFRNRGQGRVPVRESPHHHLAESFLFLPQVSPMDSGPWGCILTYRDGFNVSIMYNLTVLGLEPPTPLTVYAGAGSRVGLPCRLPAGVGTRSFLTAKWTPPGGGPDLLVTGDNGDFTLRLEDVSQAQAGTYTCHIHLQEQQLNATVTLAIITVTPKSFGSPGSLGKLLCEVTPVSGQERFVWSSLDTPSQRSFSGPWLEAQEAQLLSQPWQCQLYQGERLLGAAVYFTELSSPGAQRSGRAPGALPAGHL
The assay is described as follows: SPR Biacore T200, capture method as Example 2.7.

The target in assay [8] is T1, human LAG3 on cells. The assay is described as follows: flow cytometry (MFI) on Jurkat-LAG3 cells, upper panel; EC50 table has no unit, x axis Concentration (nM); Table 31 of the text prints the rounded 1.2. As for the experimental part:
as §1

B1: 147H-13 (antibody, V domains shown)
VH: EVQLVQSGAEVKKPGASVKVSCKASGYTFTNYWLGWIKQAPGQGLEWIGDIYPGGDYINYNEKFKGKATLTADTSISTAYMELSRLRSDDTAVYYCARPNLPGDYWGQGTTVTVSS
VL: DIVMTQSPLSLPVTPGEPASISCRSSKSLLHSNGITYLYWYLQKPGQSPQLLIYQVSNLASGVPDRFSGSGSGTDFTLKISRVEAEDVGVYYCAQNLELPWTFGGGTKVEIK
notes: Common light chain; human gamma 1 / kappa constant domains; also called 147H4-13
For B1, the EC50 in the assay with human LAG3 on cells [1] is 1.2 nM; in assay [2], 6.5 nM; in the assay with human LAG3 on cells [3], 0.767 nM; with human LAG3 on cells [5], 0.77 nM; with human LAG3 on cells [8], 1.23 nM. Besides, the dissociation constant Kd stood at 21.6 nM in assay [4], 18.2 nM in assay [6] and 14 nM in assay [7]. Besides, the figures for the koff in assay [4], in assay [6] and in assay [7] were 0.00234 s⁻¹, 0.0019 s⁻¹ and 0.03 s⁻¹, respectively. Also, the on-rate constant (kon) in assay [4] was determined as 108000 M⁻¹ s⁻¹; in assay [6] it was 104000 M⁻¹ s⁻¹; in assay [7] it was 2.2e+06 M⁻¹ s⁻¹.

Broadly, the EC50 is the concentration at which the effect is half-maximal. As a reminder, the Kd is the concentration at which binding is half-saturated. The koff is the rate constant with which the complex falls apart. The kon is the rate constant with which the complex forms.
